Experimental data reported in patent US20260250651, “CAS12 PROTEINS AND USES THEREOF” (GUANGZHOU REFORGENE MEDICINE CO., LTD., published 2026).

T1: Cas12i-69 (N295R,N260R,G705R)
T1 chain: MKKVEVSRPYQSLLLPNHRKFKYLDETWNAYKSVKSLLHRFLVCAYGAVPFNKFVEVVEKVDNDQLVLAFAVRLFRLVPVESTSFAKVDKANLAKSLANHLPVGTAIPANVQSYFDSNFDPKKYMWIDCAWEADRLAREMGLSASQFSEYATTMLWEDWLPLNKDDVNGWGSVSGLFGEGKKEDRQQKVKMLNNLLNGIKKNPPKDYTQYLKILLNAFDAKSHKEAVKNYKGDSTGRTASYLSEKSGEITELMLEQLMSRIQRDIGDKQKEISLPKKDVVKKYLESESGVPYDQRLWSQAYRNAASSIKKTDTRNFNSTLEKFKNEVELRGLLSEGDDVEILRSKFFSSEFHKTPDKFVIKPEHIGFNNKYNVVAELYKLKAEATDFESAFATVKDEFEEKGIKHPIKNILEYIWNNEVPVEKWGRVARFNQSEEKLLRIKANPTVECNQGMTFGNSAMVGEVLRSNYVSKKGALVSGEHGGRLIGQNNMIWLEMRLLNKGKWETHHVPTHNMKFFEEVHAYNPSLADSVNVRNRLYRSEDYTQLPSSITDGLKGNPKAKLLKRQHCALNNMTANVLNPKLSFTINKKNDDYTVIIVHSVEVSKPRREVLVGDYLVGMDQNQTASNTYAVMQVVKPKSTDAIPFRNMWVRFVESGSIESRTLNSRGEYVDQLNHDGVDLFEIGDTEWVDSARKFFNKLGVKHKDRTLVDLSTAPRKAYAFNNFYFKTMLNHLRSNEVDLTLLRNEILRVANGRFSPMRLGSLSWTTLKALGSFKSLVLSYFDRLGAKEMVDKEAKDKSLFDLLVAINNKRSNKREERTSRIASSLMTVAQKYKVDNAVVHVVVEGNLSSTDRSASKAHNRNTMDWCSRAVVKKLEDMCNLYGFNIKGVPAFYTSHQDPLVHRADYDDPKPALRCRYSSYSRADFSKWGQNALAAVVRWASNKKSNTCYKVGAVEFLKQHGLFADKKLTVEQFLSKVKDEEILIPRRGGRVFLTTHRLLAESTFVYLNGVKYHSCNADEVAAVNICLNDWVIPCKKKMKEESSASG

T2: Cas12i-99 (N295R,N260R,G705R,D590R)
T2 chain: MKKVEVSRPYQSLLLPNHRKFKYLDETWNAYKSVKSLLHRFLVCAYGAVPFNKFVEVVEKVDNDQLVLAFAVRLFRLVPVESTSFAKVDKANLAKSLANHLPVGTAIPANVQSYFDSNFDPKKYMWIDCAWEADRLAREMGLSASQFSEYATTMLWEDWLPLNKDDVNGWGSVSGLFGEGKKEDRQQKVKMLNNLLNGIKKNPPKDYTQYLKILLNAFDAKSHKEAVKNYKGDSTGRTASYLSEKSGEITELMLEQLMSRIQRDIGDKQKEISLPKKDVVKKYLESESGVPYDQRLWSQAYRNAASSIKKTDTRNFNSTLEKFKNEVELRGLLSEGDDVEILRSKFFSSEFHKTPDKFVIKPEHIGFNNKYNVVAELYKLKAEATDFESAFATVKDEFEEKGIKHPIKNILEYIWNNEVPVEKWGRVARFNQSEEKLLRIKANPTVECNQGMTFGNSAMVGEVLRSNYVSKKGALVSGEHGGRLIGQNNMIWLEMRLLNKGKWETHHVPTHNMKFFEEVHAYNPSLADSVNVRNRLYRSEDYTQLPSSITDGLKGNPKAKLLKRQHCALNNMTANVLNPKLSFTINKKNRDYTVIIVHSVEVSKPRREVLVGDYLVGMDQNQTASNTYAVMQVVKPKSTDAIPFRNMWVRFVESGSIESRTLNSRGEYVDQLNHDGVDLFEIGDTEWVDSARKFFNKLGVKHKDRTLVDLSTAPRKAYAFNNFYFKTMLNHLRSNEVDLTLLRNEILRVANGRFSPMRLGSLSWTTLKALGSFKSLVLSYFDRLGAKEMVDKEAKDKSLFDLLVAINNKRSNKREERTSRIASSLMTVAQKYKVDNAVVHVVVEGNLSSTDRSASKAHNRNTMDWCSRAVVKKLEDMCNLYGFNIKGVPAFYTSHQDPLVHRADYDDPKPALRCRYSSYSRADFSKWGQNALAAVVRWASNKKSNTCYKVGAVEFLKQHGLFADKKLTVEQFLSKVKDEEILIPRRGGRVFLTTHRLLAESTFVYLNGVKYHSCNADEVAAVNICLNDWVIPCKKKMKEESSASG


Tests used:
[1] = biological target: T1, Cas12i-69; assay: cell_activity; 293T indels; editing >15%
Protocol: (§1) Plating: The 293T cell line was plated when the confluence reached 70-80%, and the number of cells seeded in a 24-well plate was 5*10\hat{ }5 cells/well.
(§2) Transfection: After 12-14 hours of plating, transfection was performed. 100 μl of Opti-MEM, 1.5 μl of PEI (Yisheng Bio, Polyethylenimine Linear (PEI) MW25000), 250 ng of the mutant clone plasmid from Example 2, and 250 ng of gRNA plasmid for targeting endogenous genes were added to each well of a 24-well plate. The mixture was incubated at room temperature for 20 minutes and then added to 293T cells for transfection. After transfection overnight, the medium was replaced with fresh medium and cultured for the next period.
(§3) DNA extraction, PCR amplification, and Sanger sequencing: After culturing for 72 hours, cells were washed with PBS, and then 100 μl of cell lysis buffer (Viagen, DirectPCR® Lysis Reagent (Cell)) was added for lysis to obtain a lysate containing genomic DNA. The genomic DNA was amplified in the region near the target sequence, and the PCR product was sent to a sequencing company for Sanger sequencing.

[2] = biological target: T2, Cas12i-99; assay: cell_activity; 293T indels
Protocol: as §1, §2, §3

Binder | relative indel editing efficiency [1] | relative indel editing efficiency [2] | indel editing efficiency [1]
gRNA-HBB ; HBB target (ssRNA ; dsDNA) RNA: AGAGAAUGUGUGCAUAGUCACACUAUGCAGAAAUAUUGCUAUUGCCU DNA 1: TATGCAGAAATATTGCTATTGCCT DNA 2: AGGCAATAGCAATATTTCTGCATA | 1.58 fold of Cas12i-30 | 0.9 fold of Cas12i-69 | –
gRNA-TTR ; TTR target (ssRNA ; dsDNA) RNA: AGAGAAUGUGUGCAUAGUCACACCAGUAAGAUUUGGUGUCUAU DNA 1: CAGTAAGATTTGGTGTCTAT DNA 2: ATAGACACCAAATCTTACTG | – | 1.19 fold of Cas12i-69 | 4.68 fold of wild type
gRNA-HBG ; HBG target (ssRNA ; dsDNA) RNA: AGAGAAUGUGUGCAUAGUCACACACAAGGCAAACUUGACCAAU DNA 1: ACAAGGCAAACTTGACCAAT DNA 2: ATTGGTCAAGTTTGCCTTGT | – | 7 fold of wild type | –
